Columns and labels:
[1] = target: tubulin heterodimer (porcine/bovine brain tubulin) ( (porcine or bovine brain), UniProt Q6B856 1-445); assay: ITC
[2] = target: DARPin-tubulin complex (used in ITC) ( (porcine or bovine brain), UniProt Q6B856 1-445); assay: ITC
Sequence of DARPin-tubulin complex (used in ITC) (chain, as listed by the source, chain 1 of 3): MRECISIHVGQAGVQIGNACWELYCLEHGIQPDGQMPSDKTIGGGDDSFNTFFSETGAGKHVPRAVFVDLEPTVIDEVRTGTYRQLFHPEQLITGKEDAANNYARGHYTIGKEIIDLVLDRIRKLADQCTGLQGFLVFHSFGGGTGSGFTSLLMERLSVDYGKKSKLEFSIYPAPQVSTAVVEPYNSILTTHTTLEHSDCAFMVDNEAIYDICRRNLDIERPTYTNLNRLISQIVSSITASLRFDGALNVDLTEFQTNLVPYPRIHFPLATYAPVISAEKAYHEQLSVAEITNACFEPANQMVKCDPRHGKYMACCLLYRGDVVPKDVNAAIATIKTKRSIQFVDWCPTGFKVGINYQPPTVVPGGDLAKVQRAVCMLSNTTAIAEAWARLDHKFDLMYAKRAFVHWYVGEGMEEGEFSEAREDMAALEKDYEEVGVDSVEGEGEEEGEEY
Sequence of DARPin-tubulin complex (used in ITC) (Q6B856 whole entry, chain 2 of 3): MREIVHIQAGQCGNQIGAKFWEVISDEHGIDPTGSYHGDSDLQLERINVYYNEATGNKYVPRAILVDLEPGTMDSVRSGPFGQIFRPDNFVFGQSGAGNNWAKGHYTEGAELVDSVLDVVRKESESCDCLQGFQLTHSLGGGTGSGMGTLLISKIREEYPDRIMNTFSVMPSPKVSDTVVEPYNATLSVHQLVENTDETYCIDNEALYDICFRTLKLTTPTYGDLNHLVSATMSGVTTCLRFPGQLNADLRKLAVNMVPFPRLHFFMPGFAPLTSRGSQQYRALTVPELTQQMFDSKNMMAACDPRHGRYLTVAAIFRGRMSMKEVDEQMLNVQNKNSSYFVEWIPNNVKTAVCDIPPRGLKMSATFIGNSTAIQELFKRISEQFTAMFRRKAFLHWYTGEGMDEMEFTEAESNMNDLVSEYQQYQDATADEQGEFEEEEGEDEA
Sequence of DARPin-tubulin complex (used in ITC) (chain, as listed by the source, chain 3 of 3): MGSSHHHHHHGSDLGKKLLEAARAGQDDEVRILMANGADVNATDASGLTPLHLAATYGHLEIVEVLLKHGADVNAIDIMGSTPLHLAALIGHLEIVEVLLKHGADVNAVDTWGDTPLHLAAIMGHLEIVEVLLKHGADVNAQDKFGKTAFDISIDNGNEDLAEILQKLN

Sequence of tubulin heterodimer (porcine/bovine brain tubulin) (chain, as listed by the source, chain 1 of 2): as the sequence (chain, as listed by the source, chain 1 of 3) above
Sequence of tubulin heterodimer (porcine/bovine brain tubulin) (Q6B856 whole entry, chain 2 of 2): as the sequence (Q6B856 whole entry, chain 2 of 3) above

Row | Kd [1] | Kd [2] | Binder
1 | 136 nM | – | Y341A (protein) VANIEERPIKAAIGERKQTFEDALEEQIQLEEQELKQKQLKEAEGPLPIKAKPKQPFLKRGEGLARFTNAKSKFQK
2 | 1900 nM | – | R384E (protein) VANIEERPIKAAIGERKQTFEDYLEEQIQLEEQELKQKQLKEAEGPLPIKAKPKQPFLKRGEGLAEFTNAKSKFQK
3 | 1300 nM | – | K377E (protein) VANIEERPIKAAIGERKQTFEDYLEEQIQLEEQELKQKQLKEAEGPLPIKAKPKQPFLERGEGLARFTNAKSKFQK
4 | 800 nM | – | R378E (protein) VANIEERPIKAAIGERKQTFEDYLEEQIQLEEQELKQKQLKEAEGPLPIKAKPKQPFLKEGEGLARFTNAKSKFQK
5 | 256 nM | – | EE349RR (protein) VANIEERPIKAAIGERKQTFEDYLEEQIQLRRQELKQKQLKEAEGPLPIKAKPKQPFLKRGEGLARFTNAKSKFQK
6 | 143 nM | – | ED339RR (protein) VANIEERPIKAAIGERKQTFRRYLEEQIQLEEQELKQKQLKEAEGPLPIKAKPKQPFLKRGEGLARFTNAKSKFQK
7 | 400 nM | – | K372E (protein) VANIEERPIKAAIGERKQTFEDYLEEQIQLEEQELKQKQLKEAEGPLPIKAKPEQPFLKRGEGLARFTNAKSKFQK
8 | 100 nM | – | F385A (protein) VANIEERPIKAAIGERKQTFEDYLEEQIQLEEQELKQKQLKEAEGPLPIKAKPKQPFLKRGEGLARATNAKSKFQK
9 | 116 nM | – | F338A (protein) VANIEERPIKAAIGERKQTAEDYLEEQIQLEEQELKQKQLKEAEGPLPIKAKPKQPFLKRGEGLARFTNAKSKFQK
10 | – | 3400 nM | KQPFLKRGEGLARFTNAKSKFQK [PN2-3C peptide (PN2-3's C-terminus, aa 372-394 of CPAP)]

Reference: PMC4912634 (2016)
